{"source": "patent US20240398920A1", "about": "(CYTOMX THERAPEUTICS, published 2024)", "assay_in_all_cases": "cell-based or functional assay", "key": {"[1]": {"biological_target": "T1, human herpes virus entry mediator (HVEM) (human, UniProt Q92956 39-283)", "T1 sequence (looked up)": "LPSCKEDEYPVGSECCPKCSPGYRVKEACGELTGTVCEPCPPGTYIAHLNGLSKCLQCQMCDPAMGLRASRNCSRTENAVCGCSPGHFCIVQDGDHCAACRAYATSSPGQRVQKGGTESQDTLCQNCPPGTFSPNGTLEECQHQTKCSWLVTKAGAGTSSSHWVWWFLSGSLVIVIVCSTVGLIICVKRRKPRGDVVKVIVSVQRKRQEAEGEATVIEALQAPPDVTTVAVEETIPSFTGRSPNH"}, "[2]": {"biological_target": "T1, human herpes virus entry mediator (HVEM)", "remark": "listed apart in the source"}, "[3]": {"biological_target": "T1, human herpes virus entry mediator (HVEM)", "remark": "listed apart in the source"}, "[4]": {"biological_target": "T2, human lymphotoxin beta receptor (LTbR) (human, UniProt P36941 31-435)", "T2 sequence (P36941 31-435)": "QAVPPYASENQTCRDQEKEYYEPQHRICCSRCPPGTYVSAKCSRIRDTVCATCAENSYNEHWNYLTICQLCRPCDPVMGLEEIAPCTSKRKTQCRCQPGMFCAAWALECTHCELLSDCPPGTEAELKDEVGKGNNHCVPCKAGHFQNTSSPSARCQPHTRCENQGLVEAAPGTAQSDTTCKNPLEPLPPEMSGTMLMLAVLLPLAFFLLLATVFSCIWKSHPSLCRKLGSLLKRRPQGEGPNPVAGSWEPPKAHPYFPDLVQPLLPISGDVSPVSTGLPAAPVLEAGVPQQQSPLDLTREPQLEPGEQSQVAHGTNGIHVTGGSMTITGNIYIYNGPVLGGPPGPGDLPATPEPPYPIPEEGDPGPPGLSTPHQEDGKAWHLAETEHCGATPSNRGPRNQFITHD"}, "[5]": {"biological_target": "T1, human herpes virus entry mediator (HVEM)", "remark": "listed apart in the source"}, "[6]": {"biological_target": "T2, human lymphotoxin beta receptor (LTbR)", "remark": "listed apart in the source"}, "[7]": {"biological_target": "T2, human lymphotoxin beta receptor (LTbR)", "remark": "listed apart in the source"}, "[8]": {"biological_target": "T1, human herpes virus entry mediator (HVEM)", "remark": "listed apart in the source"}, "[9]": {"biological_target": "T1, human herpes virus entry mediator (HVEM)", "remark": "listed apart in the source"}}, "note": "Read-outs that look alike come from different tables or passages of the source.", "data": [{"binder": "ProC_LIGHT-10GS-His (ProC1189) (ligand) QERRSHEVNPAAHLTGANSSLTGSGGPLLWETQLGLAFLRGLSYHDGALVVTKAGYYYIYSKVQLGGVGCPLGLASTITHGLYKRTPRYPEELELLVSQQSPCGRATSSSRVWWDSSFLGGVVHLEAGEEVVVRVLDERLVRLRDGTRSYFGAFMVSGGGSGGGSGHHHHHH", "values": [{"measurement": "EC50 [nM]: HVEM Reporter Assay", "setting": "[1]", "value": 0.86, "unit": "nM"}, {"measurement": "EC50 [nM]: HVEM Reporter Assay", "setting": "[2]", "value": 0.58, "unit": "nM"}]}, {"binder": "ProC1192 + uPa (ligand, not shown: small tags and cut ends) GGSQERRSHEVNPAAHLTGANSSLTGSGGPLLWETQLGLAFLRGLSYHDGALVVTKAGYYYIYSKVQLGGVGCPLGLASTITHGLYKRTPRYPEELELLVSQQSPCGRATSSSRVWWDSSFLGGVVHLEAGEEVVVRVLDERLVRLRDGTRSYFGAFMVSGGGSGGGSGSAWSHPQFEK", "values": [{"measurement": "EC50 [nM]: HVEM Reporter Assay", "setting": "[3]", "value": 0.999, "unit": "nM"}, {"measurement": "EC50 [pM]: Lymphotoxin beta receptor Reporter Assay", "setting": "[4]", "value": 2, "unit": "pM"}]}, {"binder": "LIGHT-10GS-Strep (ProC1188) (ligand) QERRSHEVNPAAHLTGANSSLTGSGGPLLWETQLGLAFLRGLSYHDGALVVTKAGYYYIYSKVQLGGVGCPLGLASTITHGLYKRTPRYPEELELLVSQQSPCGRATSSSRVWWDSSFLGGVVHLEAGEEVVVRVLDERLVRLRDGTRSYFGAFMVSGGGSGGGSGSAWSHPQFEK", "values": [{"measurement": "EC50 [nM]: HVEM Reporter Assay", "setting": "[5]", "value": 0.843, "unit": "nM"}, {"measurement": "EC50 [pM]: Lymphotoxin beta receptor Reporter Assay", "setting": "[6]", "value": 5.3, "unit": "pM"}, {"measurement": "EC50 [pM]: Lymphotoxin beta receptor Reporter Assay", "setting": "[7]", "value": 5.3, "unit": "pM"}, {"measurement": "EC50 [nM]: HVEM Reporter Assay", "setting": "[8]", "value": 1, "unit": "nM"}]}, {"binder": "ProC_mLm16_1490_LIGHT-10GS-Strep (ProC1192) (other) QGQSGSRHPCRHDPHIICYKFGGGSSGGSISSGLLSGRSDNIGGSQERRSHEVNPAAHLTGANSSLTGSGGPLLWETQLGLAFLRGLSYHDGALVVTKAGYYYIYSKVQLGGVGCPLGLASTITHGLYKRTPRYPEELELLVSQQSPCGRATSSSRVWWDSSFLGGVVHLEAGEEVVVRVLDERLVRLRDGTRSYFGAFMVSGGGSGGGSGSAWSHPQFEK", "values": [{"measurement": "EC50 [pM]: Lymphotoxin beta receptor Reporter Assay", "setting": "[6]", "value": 31.3, "unit": "pM"}, {"measurement": "masking efficiency, HVEM Reporter Assay (EC50 against control ProC1188 or protease-activated ProC1192)", "setting": "[9]", "value": "> 20", "unit": "fold"}, {"measurement": "EC50 [nM]: HVEM Reporter Assay", "setting": "[8]", "value": 25.6, "unit": "nM"}]}]}
